Results as given in the supplement of paper PMC10567573.

B1: CCND2 (parent)
chain: YFKCVQKDIQPYMRRMVATWMLEV
B2: TAF7L (parent)
chain: PDVENEVKRLLRSDAEAVSTRWEV

Variants of: B1
Assay: protein stability index of a GFP-peptide fusion (GPS, HEK-293T) (PSI 1-6); higher = more stable
Conditions: c terminus: a fixed tail appended
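Note: lentivirally expressed fusions sorted by FACS into six bins by GFP to DsRed ratio, PSI derived from sequencing read proportions per bin multiplied by bin number.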

Protein stability index of substitutions, site by site:
C4: H 2.37 | R 2.25 | Y 3.12 | P 2.44
E23: R 2.96 | M 2.9 | K 2.31 | T 2.88 | I 3.03 | V 2.73 | P 3.09
A18: H 2.17 | T 3.65 | C 1.44 | P 2.96 | W 2.98 | R 4.17
P11: C 2.36 | D 2.22 | Q 3.25
I9: S 3.49 | D 2.71 | L 3.16 | P 3.18 | E 3.71 | T 3.39 | Q 2.61 | C 2.51
W20: L 4.58 | Q 2.61 | N 1.24 | P 2.58 | T 2.18
R15: G 2.35 | L 2.33 | P 3.69 | D 3.42 | H 2.75 | K 2.36 | F 4.08 | Y 2.81
M21: V 2.55 | D 2.43 | P 2.24 | Q 1.76 | R 1.86 | K 3.19 | I 2.58 | H 2.08 | L 1.76
V17: E 2.49 | F 2.44 | I 2.65 | G 3.39 | W 4.01 | K 2.5 | L 2.28 | N 2.15
M13: F 3.07 | V 1.66 | D 2.8 | Q 2.65 | K 3.64 | H 2.92
Q6: W 1.64 | N 1.9 | G 2.47 | E 3.62 | A 1.97 | T 2.38 | Y 2.64 | R 2.65 | L 2.53
T19: V 2.61 | W 2.88 | P 1.41 | A 3.42 | R 1.58 | Q 1.75
M16: H 2.35 | Q 2.91 | K 2.67 | L 3.06 | A 3.12 | E 2.45 | V 2.3
V24: I 3.24 | E 2.42 | D 1.56 | F 3.08 | S 2.97 | P 1.91
D8: W 2.03 | Y 3.53 | H 2.21 | L 2.05 | N 2.16 | P 3.13 | I 2.58
K3: M 2.96 | P 2.33 | T 3.31 | L 2.71
Y12: I 2.54 | A 3.33 | C 2.89 | H 2.54 | V 3.11 | S 2.83 | W 2.43
Q10: H 2.84 | K 3.06 | G 2.42 | E 2.32 | I 3.17 | W 3.11 | A 3.8
K7: Y 2.54 | L 2.56 | M 2.53 | R 2.69 | S 3.21 | Q 2.1 | N 2.66 | I 3.33
R14: I 2.63 | A 3.47 | Q 1.73 | T 4.32
F2: N 2.66 | K 2.95 | I 2.9 | T 2.61 | Q 3.63
L22: P 1.63 | W 2.6 | I 2.61 | Y 2
Y1: Q 3.55 | C 1.94 | S 2.85 | L 2.14 | N 2.23 | V 3.34 | H 3.71 | T 2.37
V5: W 2.9 | Y 4 | N 2.54 | P 3.14 | E 2.58 | K 2.25 | G 1.47 | A 2.25

Variants of: B2
Assay: as above
Conditions: c terminus: a fixed tail appended

Protein stability index, by site and new letter:
E16: Y 1.46 | F 2.27 | R 2.12 | I 2.08 | K 2.65 | P 3.18 | D 3.74 | M 1.71 | Q 3.22 | L 2.73 | S 3.17 | T 2.77 | C 2.01 | H 2.9
A17: P 3.28 | C 3.54 | V 3.35 | G 3.69 | T 2.71 | N 3.61 | S 3.93 | F 2.64
A15: Q 3.46 | H 3.88 | N 3.54 | D 4.09 | E 4.36 | L 3.58 | V 3.02 | Y 3.51 | T 1.9 | S 3.22 | W 2.93 | P 3.19 | R 2.99 | G 3.97 | F 2.57
R12: E 4.54 | F 2.88 | Y 3.96 | K 4.19 | C 2.99 | H 4.38 | W 2.33 | A 3.5 | P 4.61 | S 3.75 | N 3.87 | V 2.96 | D 4
S13: F 1.9 | D 4.14 | E 4.19 | Q 2.09 | M 3.54 | H 2.53 | P 4.71 | G 3.02 | I 3.29 | N 3.53 | Y 2.87 | K 3.76
D14: T 2.12 | Y 1.45 | M 3.06 | L 1.77 | W 1.48 | R 2.38 | S 2.26 | H 3.25 | N 2.75 | A 1.97 | P 2.13
T20: R 3.29 | S 3.32 | Q 3.34 | L 2.29 | V 2.39 | K 3.85 | E 3.99 | Y 2.43 | H 2.22 | N 3.28 | M 2.26 | A 4.18 | I 2.12 | D 2.76 | F 2.74 | P 2.15
V24: D 4.24 | R 4.36 | P 4.63 | C 4.15 | T 4.31 | E 4.13 | G 4.61 | N 5.33 | A 4.61 | Y 3.51 | M 4.29
R21: V 3.2 | F 2.53 | Q 4.18 | A 3.19 | M 3.61 | H 3.58 | L 2.86 | T 3.06 | N 4.93 | S 2.95 | K 3.76 | D 5.01 | E 5.41 | Y 2.51 | G 4.36 | I 2.96 | P 3.87 | C 2.61
L10: W 2.86 | T 4.36 | K 3.8 | Q 3.25
V18: Q 3.9 | P 3.31 | K 2.9 | G 4.29 | E 4.54 | W 2.22 | M 4.78 | F 2.31 | Y 3.37 | T 3.83
S19: P 3.75 | H 3.18 | Y 2.08 | M 2.48 | G 3.54 | I 3.03 | F 2.73
W22: A 5.26 | F 3.83 | C 3.63 | N 5.45 | G 5.31 | L 4.8 | D 5.66 | R 4.92 | Q 5.11 | T 5.07 | H 4.79 | I 4.49 | P 4.92 | V 4.21 | E 5.52
E23: H 3.56 | G 3.86 | M 2.4 | K 3.59 | I 2.59 | R 2.75 | A 3.52 | L 2.29 | P 3.2 | Q 2.68 | S 2.53 | T 2.96 | Y 2.56 | C 2.83
L11: S 3.53 | E 5.07 | N 4.79 | K 4.37 | T 4.11 | Q 4.35 | A 4.29 | R 4.2 | M 3.14 | D 4.9 | C 3.25 | P 4.74
